{
  "source": "patent US20140286976A1",
  "about": "(ARGEN X B V, published 2014)",
  "biological_target": "T1, Human c-Met ECD (Flag and strep tag) (human, UniProt P08581 25-932)",
  "T1 construct": "also called HMet; Human Wt c-Met; not shown: Flag and strep tag",
  "T1 sequence (P08581 25-932)": "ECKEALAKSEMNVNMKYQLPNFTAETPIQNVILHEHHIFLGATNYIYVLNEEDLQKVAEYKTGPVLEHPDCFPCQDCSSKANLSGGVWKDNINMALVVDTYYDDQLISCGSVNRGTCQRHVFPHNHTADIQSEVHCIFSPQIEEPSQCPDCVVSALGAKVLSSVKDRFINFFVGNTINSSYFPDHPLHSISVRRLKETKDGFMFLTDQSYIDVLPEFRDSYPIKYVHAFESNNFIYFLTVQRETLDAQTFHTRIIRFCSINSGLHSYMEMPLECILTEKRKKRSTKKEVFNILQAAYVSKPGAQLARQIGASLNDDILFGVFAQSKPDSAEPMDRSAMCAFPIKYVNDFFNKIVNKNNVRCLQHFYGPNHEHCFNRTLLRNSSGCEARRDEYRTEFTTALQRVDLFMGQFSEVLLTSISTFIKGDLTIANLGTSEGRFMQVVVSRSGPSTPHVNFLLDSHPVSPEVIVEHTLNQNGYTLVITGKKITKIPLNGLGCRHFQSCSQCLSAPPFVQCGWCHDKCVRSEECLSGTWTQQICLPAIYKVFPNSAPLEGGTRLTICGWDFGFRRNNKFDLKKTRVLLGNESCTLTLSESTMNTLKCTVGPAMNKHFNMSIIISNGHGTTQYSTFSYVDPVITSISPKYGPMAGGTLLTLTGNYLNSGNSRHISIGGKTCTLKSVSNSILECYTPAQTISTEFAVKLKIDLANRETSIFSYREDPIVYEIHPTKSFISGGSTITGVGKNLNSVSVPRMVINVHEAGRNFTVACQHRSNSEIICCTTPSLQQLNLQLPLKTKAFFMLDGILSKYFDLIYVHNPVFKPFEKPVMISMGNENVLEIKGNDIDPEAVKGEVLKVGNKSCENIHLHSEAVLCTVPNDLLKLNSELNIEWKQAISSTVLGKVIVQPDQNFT",
  "test": "ELISA; mAb immobilized (2 µg/ml), c-Met protein added, streptavidin-HRP",
  "data": [
    {"binder": "48A2 (antibody, V domains shown) VH: EVQLVQPGVELRNPGASVKVSCKASGYIFTMNSIDWVRQAPGQGLEWMGRIDPEDGGTKYAQKFQGRVTFTADTSTSTAYVELNSLRSEDTAVYYCARVDDYYLGYDYWGQGTQVTVSS VL: DIVMTQTPTSVTASAGDKVTINCKSSQSVLFSSNQKNYLAWYQQRLGQSPRLLIYWASIRESGVPDRFSGSGSATDFTLTISNFQPEDAAVYYCQQGYSFPYSFGSGTRLEIR", "values": [
      {"measurement": "EC50", "result": 0.045, "unit": "µg/mL"}
    ]}
  ]
}
